From patent US6372898 (SCHERING, dated 2002)
Changes are numbered by the printed parent chain. Names may count otherwise. Read-outs that look alike come from different tables or passages of the source. One block for each binder: values may come before it.

Experiments:
[1] = molecular target: T1, cytokine receptor common gamma chain (γc), wild type (human, UniProt P31785 23-369); test: co-immunoprecipitation from 293T lysates; γc precipitated, blot for the epitope-tagged Jak3 fragment
T1 construct: also called WT γc; gc
T1 sequence: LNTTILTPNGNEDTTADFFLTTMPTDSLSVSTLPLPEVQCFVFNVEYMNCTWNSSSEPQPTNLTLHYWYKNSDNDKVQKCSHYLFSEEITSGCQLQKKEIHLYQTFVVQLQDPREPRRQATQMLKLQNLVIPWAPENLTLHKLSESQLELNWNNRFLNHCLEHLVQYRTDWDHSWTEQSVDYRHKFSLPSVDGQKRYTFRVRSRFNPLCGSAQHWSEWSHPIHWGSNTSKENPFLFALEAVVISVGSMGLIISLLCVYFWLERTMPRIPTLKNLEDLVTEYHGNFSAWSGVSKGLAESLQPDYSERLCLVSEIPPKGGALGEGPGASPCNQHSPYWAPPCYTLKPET
Description: (§1) Lysates were centrifuged at 12,000×g, and NaCl was added to 500 mM final concentration. Lysates were immunoprecipitated with the appropriate antibody. Rabbit polyclonal, mouse monoclonal (M2), and Sepharose-conjugated M2 anti-FLAG antibodies were purchased from Kodak Scientific Imaging Systems (Rochester, N.Y.), Goat anti-γ_c antibody was purchased from R&D (Minneapolis, Minn.). Lysates were boiled, and subjected to 8% SDS-PAGE or 12% SDS-PAGE for experiments with Jak3 fragments, and electrotransferred onto […] membranes (Immobilon-P, Millipore, Bradford, Mass.). Membranes were probed with one of the following antibodies: Mouse monoclonal M2 anti-FLAG antibody, rabbit polyclonal anti-γ_c antibody, or mouse monoclonal anti-Myc tag antibody 9E10 (Santa Cruz Biotechnology, Santa Cruz, Calif.). For the immunoprecipitation with EBV-transformed B cell lines and the IL-2R expressing fibroblasts, cells were lysed as described above, except with a final NaCl concentration of 150 mM. Lysates were immunoprecipitated with monoclonal (M2) anti-FLAG antibody, rabbit polyclonal antibody directed against the C-terminus of Jak3 (α-Jak3; Kawamura, et al. (1994) *Proc Nat'l Acad Sci USA* 91:6374–8) or rabbit polyclonal antibody specific for STAT5b (Santa Cruz Biotechnology, Santa Cruz, Calif.). Immunoprecipitates were then washed, boiled, and resolved using SDS-PAGE. […]

[2] = molecular target: T2, cytokine receptor common gamma chain (γc), wild type
T2 chain: T1 sequence

[3] = molecular target: T1, cytokine receptor common gamma chain …; test: co-immunoprecipitation from 293T lysates; anti-FLAG M2 IP of FLAG-tagged Jak3, blot for γc
Description: as §1

[4] = molecular target: T1, cytokine receptor common gamma chain …; test: co-immunoprecipitation (summary of the combined results)
[5] = molecular target: T1, cytokine receptor common gamma chain …; test: co-immunoprecipitation, 293T cells
[6] = test system: T3, cytokine receptor common gamma chain (γc), wild type; remark: listed apart in the source
T3 sequence: T1 sequence

B1: Jak3 fragment J3 1-109 (other, not shown: small tags and cut ends)
chain: MAPPSEETPLIPQRSCSLLSTEAGALHVLLPARAPGPPQRLSFSFGDHLAEDLCVQAAKASGILPVYHSLFALATEDLSCWFPPSHIFSVEDASTQVLLYRIRFYFPNW
binding result [1]: no binding

B2: wild-type Jak3 (protein)
chain: MAPPSEETPLIPQRSCSLLSTEAGALHVLLPARAPGPPQRLSFSFGDHLAEDLCVQAAKASGILPVYHSLFALATEDLSCWFPPSHIFSVEDASTQVLLYRIRFYFPNWFGLEKCHRFGLRKDLASAILDLPVLEHLFAQHRSDLVSGRLPVGLSLKEQGECLSLAVLDLARMAREQAQRPGELLKTVSYKACLPPSLRDLIQGLSFVTRRAIRRTVRRALPRVAACQADRHSLMAKYIMDLERLDPAGAAETFHVGLPGALGGHDGLGLLRVAGDGGIAWTQGEQEVLQPFCDFPEIVDISIKQAPRVGPAGEHRLVTVTRTDNQILEAEFPGLPEALSFVALVDGYFRLTTDSQHFFCKEVAPPRLLEEVAEQCHGPITLDFAINKLKTGGSRPGSYVLRRSPQDFDSFLLTVCVQNPLGPDYKGCLIRRSPTGTFLLVGLSRPHSSLRELLATCWDGGLHVDGVAVTLTSCCIPRPKEKSNLIVVQRGHSPPTSSLVQPQSQYQLSQMTFHKIPADSLEWHENLGHGSFTKIYRGCRHEVVDGEARKTEVLLKVMDAKHKNCMESFLEAASLMSQVSYRHLVLLHGVCMAGDSTMVQEFVHLGAIDMYLRKRGHLVPASWKLQVVKQLAYALNYLEDKGLPHGNVSARKVLLAREGADGSPPFIKLSDPGVSPAVLSLEMLTDRIPWVAPECLREAQTLSLEADKWGFGATVWEVFSGVTMPISALDPAKKLQFYEDRQQLPAPKWTELALLIQQCMAYEPVQRPSFRAVIRDLNSLISSDYELLSDPTPGALAPRDGLWNGAQLYACQDPTIFEERHLKYISQLGKGNFGSVELCRYDPLAHNTGALVAVKQLQHSGPDQQRDFQREIQILKALHSDFIVKYRGVSYGPGRPELRLVMEYLPSGCLRDFLQRHRARLDASRLLLYSSQICKGMEYLGSRRCVHRDLAARNILVESEAHVKIADFGLAKLLPLDKDYYVVREPGQSPIFWYAPESLSDNIFSRQSDVWSFGVVLYELFTYCDKSCSPSAEFLRMMGCERDVPALCRLLELLEEGQRLPAPPACPAEVHELMKLCWAPSPQDRPSFSALGPQLDMLWSGSRGCETHAFTAHPEGKHHSLSFS
IL-2 induced tyrosine phosphorylation of Jak3 in IL-2R+ fibroblasts [2]: Jak3 was rapidly tyrosine phosphorylated and associated with the IL-2 receptor complex
IL-2 induced tyrosine phosphorylation of STAT5b in IL-2R+ fibroblasts [2]: Cells expressing wild type Jak3 (WT) exhibited tyrosine phosphorylation of STAT5b

B3: Jak3 Y100C (enzyme)
chain: B2 chain with Y100C
notes: also called Y100C mutant; patient mutant; not shown: C-terminal FLAG tag (single copy) joined through a ClaI site
binding result [3]: no binding
IL-2 induced tyrosine phosphorylation of Jak3 in IL-2R+ fibroblasts [2]: no IL-2-induced phosphorylation of Jak3 Y100C was observed

B4: Jak3 I102A (enzyme)
chain: B2 chain with I102A
notes: not shown: C-terminal FLAG or Myc tag joined through a ClaI site
binding result [4]: no binding

B9: Jak3/Jak1 chimera J3 1-256 (enzyme, part only; not given: Jak1 C-terminal part and tag)
chain, part: MAPPSEETPLIPQRSCSLLSTEAGALHVLLPARAPGPPQRLSFSFGDHLAEDLCVQAAKASGILPVYHSLFALATEDLSCWFPPSHIFSVEDASTQVLLYRIRFYFPNWFGLEKCHRFGLRKDLASAILDLPVLEHLFAQHRSDLVSGRLPVGLSLKEQGECLSLAVLDLARMAREQAQRPGELLKTVSYKACLPPSLRDLIQGLSFVTRRAIRRTVRRALPRVAACQADRHSLMAKYIMDLERLDPAGAAETFHV
IL-2 induced tyrosine phosphorylation of STAT5b in IL-2R+ fibroblasts [6]: the J3 1-256 chimera (encoding both of the entire JH7/JH6 regions) responded to IL-2 stimulation by tyrosine phosphorylating STAT5b
IL-2 induced tyrosine phosphorylation of the chimera in IL-2R+ fibroblasts [6]: The smallest region of a chimeric Jak3/Jak1 which reconstituted IL-2-induced tyrosine phosphorylation was a region that contained both of the entire JH7 and JH6 domains
phosphorylation of IL-2Rβ after IL-2 in IL-2R+ fibroblasts [6]: it was only detected in cell lines that expressed Jak3/Jak1 chimeras having the entire JH7 and JH6 domains

B10: Jak3/Jak1 chimera J3 1-130 (enzyme, part only; not given: Jak1 C-terminal part and tag)
chain, part: MAPPSEETPLIPQRSCSLLSTEAGALHVLLPARAPGPPQRLSFSFGDHLAEDLCVQAAKASGILPVYHSLFALATEDLSCWFPPSHIFSVEDASTQVLLYRIRFYFPNWFGLEKCHRFGLRKDLASAILD
IL-2 induced tyrosine phosphorylation of STAT5b in IL-2R+ fibroblasts [6]: cells expressing the J3 1-130 chimera also failed to demonstrate STAT5b phosphorylation

The next lines start with the values.

binding result [4]: no binding
B5: Jak3 L98A (enzyme)
chain: B2 chain with L98A
notes: also called Leucine 98A; not shown: C-terminal FLAG or Myc tag joined through a ClaI site

binding result [3]: no binding
B6: Jak3 Y100C/Y105F double mutant (enzyme)
chain: B2 chain with Y100C, Y105F
notes: not shown: C-terminal FLAG tag (single copy) joined through a ClaI site

binding result [5]: no binding
B7: Jak3 Y100C/K855A (enzyme)
chain: B2 chain with Y100C, K855A
notes: also called J3 Y100C/K855A; not shown: C-terminal FLAG or Myc tag joined through a ClaI site

binding result [4]: no binding
B8: Jak3 Y100A mutant (enzyme)
chain: B2 chain with Y100A
notes: as for B4
